Here are results for two molecules from PMC3783164.

This series has as its target SP1 (rhSP1) (Homo sapiens, UniProt P08047 1-785). The series is described as follows: EMSA. In general terms: A gel shift assay detects complexes by their altered migration in electrophoresis.

SP1 (rhSP1), sequence (P08047 whole entry): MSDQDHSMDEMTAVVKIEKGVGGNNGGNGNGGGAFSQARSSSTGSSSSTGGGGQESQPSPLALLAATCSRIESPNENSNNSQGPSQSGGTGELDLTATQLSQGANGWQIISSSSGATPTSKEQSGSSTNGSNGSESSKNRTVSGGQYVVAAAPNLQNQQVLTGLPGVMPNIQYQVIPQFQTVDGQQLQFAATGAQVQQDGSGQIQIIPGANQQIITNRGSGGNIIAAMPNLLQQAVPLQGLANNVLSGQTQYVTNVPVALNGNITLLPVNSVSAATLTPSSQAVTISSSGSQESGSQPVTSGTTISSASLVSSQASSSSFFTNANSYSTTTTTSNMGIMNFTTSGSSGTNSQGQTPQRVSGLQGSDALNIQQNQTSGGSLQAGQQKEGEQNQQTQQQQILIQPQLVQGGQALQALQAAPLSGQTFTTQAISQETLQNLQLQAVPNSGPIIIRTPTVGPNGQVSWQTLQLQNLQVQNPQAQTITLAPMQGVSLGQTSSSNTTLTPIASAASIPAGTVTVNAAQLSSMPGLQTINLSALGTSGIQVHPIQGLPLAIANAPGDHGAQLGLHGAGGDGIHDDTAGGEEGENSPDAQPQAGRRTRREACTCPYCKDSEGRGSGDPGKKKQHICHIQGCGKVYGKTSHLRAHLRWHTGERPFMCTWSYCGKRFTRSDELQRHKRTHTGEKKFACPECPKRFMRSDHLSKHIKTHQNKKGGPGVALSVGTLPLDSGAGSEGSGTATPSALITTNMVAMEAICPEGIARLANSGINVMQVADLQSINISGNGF

B1: MRE1.3 (dsDNA)
DNA 1: GCAGCAGCCTCCTCCCCCCGCACGGTGTGAGCGCCCGACGCGGCCGAGGCGGCCGGAGTCCCGAG
DNA 2: CTCGGGACTCCGGCCGCCTCGGCCGCGTCGGGCGCTCACACCGTGCGGGGGGAGGAGGCTGCTGC
Take B1: the binding result is given as “binds”.

B2: MRE1.3a (25 bp) (dsDNA)
DNA 1: GCAGCAGCCTCCTCCCCCCGCACGG
DNA 2: CCGTGCGGGGGGAGGAGGCTGCTGC
For B2, the binding result is reported as “binds”.
